The source of these data is patent CN111234012A.

The experiment addresses HBV病毒 (HepAD38细胞上清制备的HBV病毒液). Briefly: cell-based or functional assay.

Substance 乙肝免疫球蛋白 (HBIG) (antibody) showed an HBV neutralisation on HepG2-NTCP cells, HBeAg in supernatant (IC50) of 15 µg/mL.
